Test results from patent publication US20080267971A1 (published 2008).
Changes are numbered by the printed parent chain.

B1: mAb 5.62.1 (antibody, V domains shown)
VH: EVQLVESGGGLVQPGGSLRLSCAASGFTFSSYWMSWVRQAPGKGLEWVANIKQDGSEKYYVDSVKGRFTISRDNAKNSLYLQMNSLRAEDTAVYYCARDPGIAVAGPFDYWGQGTLVTVSS
VL: EIVMTQSPATLSVSPGERATLSCRASQSVSSNLAWYQQKPGQAPRLLIYGAFTRATGIPARFSGSGSGTEFTLTISSLQSEDFAVYYCQQYNHWWTFGQGTKVGIKR
notes: Human hybridoma IgG (XenoMouse); also called x5.62
B2: mAb 5.103.1 (antibody, V domains shown)
VH: QVQLVQSGAEVKKPGASVKVSCKASGYTFTGYYLYWVPQAPGQGLEWMGWISPNSGGTNYAQKFQGRVTMTRDTSISTAYMELSRLRSDDTAVYYCARDQVIAVAGPFDYWAQGTLVTVSS
VL: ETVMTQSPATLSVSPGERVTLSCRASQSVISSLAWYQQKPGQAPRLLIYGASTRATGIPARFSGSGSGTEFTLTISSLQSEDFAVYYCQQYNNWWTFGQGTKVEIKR
notes: Human hybridoma IgG (XenoMouse); also called 5.103.3; x5.103
B3: mAb 5.35.1 (antibody, V domains shown)
VH: EVQLVESGGGVVRPGGSLRLSCTTSGFTFDDYGMSWVRQAPGKGLEWVSGINWNGGSTVYADSVKGRFTISRDSAKNSLYLQMNSLRAEDTALYHCARNKQWLWYFDLWGRGTLVTVSS
VL: EIVMTQSPATLSVSPGERATLSCRASQSVSSNLAWYQQKPGQAPRLLIYGASTRATGIPARFSGSGSGTEFTLTISSLQSEDFAVYYCEQYNNWPLTFGGGTKVEIKR
notes: Human hybridoma IgG (XenoMouse); also called x5.35
B4: mAb 5.108.1 (antibody, V domains shown)
VH: QVQLVESGGGVVQPGRSLRLSCAASGFTFSSYGMHWVRQAPGKGLEWVAVIWYDGSNKYYADSVKGRFTISRDNSKNTLYLQMNSLRAEDTAMYYCARELALWGQGTLVTVSS
VL: B1 VL with N32Y, S63R, T69P, N92S, G104E
notes: Human hybridoma IgG (XenoMouse); also called x5.108
B5: mAb 5.39.1 (antibody, V domains shown)
VH: QVQLVQSGAEVTKPGASVKVSCKASGYTFTAYHMYWVRQAPGQGLEWMGWINPNSGGTNYAQKFQGRVTMTRDTSISTAYMELSRLRSDDSPVYYCARDQGIAAAGPFDYWGQGTLVTVSS
VL: B1 VL with E17D, L33F, A51S, F52S, N92H, H93Y, G104E, I105F
notes: Human hybridoma IgG (XenoMouse); also called x5.39
B6: mAb 5.40.2 (antibody, V domains shown)
VH: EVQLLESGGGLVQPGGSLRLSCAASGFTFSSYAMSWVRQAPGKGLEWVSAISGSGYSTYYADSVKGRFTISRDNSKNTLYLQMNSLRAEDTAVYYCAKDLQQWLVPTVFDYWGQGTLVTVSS
VL: B1 VL with A34V, G50D, A51S, F52S, A60V, G104E
notes: Human hybridoma IgG (XenoMouse); also called x5.40

Experiments:
human Ang-2443 = target: T1, human Ang-2443 (human, UniProt O15123 19-496); assay: ELISA
T1 construct: Splice variant missing amino acids 96-148; supernatant of transfected 293F cells
T1 sequence: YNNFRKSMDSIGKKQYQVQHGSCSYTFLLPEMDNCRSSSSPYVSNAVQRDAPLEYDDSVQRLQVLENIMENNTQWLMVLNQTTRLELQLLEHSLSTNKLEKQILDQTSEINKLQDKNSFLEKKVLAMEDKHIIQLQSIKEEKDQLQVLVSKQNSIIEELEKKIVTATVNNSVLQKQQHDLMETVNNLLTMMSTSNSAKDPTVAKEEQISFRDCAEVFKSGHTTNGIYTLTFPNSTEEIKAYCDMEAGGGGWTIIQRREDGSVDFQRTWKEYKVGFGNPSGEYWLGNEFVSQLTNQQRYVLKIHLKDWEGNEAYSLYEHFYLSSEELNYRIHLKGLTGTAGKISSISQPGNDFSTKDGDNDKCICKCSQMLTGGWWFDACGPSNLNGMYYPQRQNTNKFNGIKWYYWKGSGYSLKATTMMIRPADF

human Angiopoietin-2 [1] = target: T2, human Angiopoietin-2 (human, UniProt O15123 19-496); assay: Biacore; kd held constant (*)
T2 construct: Mostly bought recombinant protein (R&D Systems 623-AM/CF, 623-AN; biotinylated BT623) or supernatant of transfected 293F cells; also called Ang-2; rhAng-2
T2 sequence: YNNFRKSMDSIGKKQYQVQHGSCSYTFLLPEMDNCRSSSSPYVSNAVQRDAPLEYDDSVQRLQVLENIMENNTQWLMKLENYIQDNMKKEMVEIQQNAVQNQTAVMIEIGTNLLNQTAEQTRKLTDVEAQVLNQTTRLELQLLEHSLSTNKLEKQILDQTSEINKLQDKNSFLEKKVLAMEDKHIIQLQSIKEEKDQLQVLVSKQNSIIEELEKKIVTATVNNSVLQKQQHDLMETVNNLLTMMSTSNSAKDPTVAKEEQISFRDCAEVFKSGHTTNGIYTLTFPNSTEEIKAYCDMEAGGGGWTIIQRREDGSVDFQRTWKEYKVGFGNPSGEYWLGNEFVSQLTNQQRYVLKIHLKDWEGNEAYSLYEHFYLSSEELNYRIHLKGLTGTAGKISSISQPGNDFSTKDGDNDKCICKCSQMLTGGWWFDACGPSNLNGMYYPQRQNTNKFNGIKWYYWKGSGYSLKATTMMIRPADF
Description: (§1) The label-free surface plasmon resonance (SPR), or Biacore, was utilized to measure the antibody affinity to the antigen. For this purpose, a high-density goat anti-human antibody surface over a CM5 Biacore chip was prepared using routine amine coupling. All the purified mAbs were diluted to approximately 8 μg/ml in HBS-P running buffer containing 100 μg/ml BSA and 10 mg/mL carboxymethyldextran. Each mAb was captured on a separate surface using a 42-second contact time, and a 5-minute wash for stabilization of the mAb baseline.
(§2) Data were fit globally to a 1:1 interaction model to determine the binding kinetics.

human Angiopoietin-2 [2] = target: T2, human Angiopoietin-2; assay: Biacore, mAb captured
Description: as §1, §2

mouse Angiopoietin-2 = target: T3, mouse Angiopoietin-2 (mouse, UniProt O35608 19-496); assay: ELISA, recombinant mouse Ang-2
T3 construct: Used as conditioned medium of transfectants; also called mAng-2; mouse Ang-2
T3 sequence: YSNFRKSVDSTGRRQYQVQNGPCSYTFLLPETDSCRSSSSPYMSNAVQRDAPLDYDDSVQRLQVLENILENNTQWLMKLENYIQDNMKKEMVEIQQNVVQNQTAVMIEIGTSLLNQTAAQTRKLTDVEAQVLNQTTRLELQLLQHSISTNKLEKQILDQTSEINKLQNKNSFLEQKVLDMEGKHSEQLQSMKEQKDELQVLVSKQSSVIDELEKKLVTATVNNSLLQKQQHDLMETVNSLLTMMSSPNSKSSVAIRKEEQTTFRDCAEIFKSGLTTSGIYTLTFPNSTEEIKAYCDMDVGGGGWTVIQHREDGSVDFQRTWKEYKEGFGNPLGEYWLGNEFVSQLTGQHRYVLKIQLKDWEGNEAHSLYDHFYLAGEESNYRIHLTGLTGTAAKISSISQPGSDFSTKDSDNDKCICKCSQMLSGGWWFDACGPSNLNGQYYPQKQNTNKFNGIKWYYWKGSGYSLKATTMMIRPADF

human Angiopoietin-1 = target: T4, human Angiopoietin-1 (human, UniProt Q15389 20-498, limits assumed); assay: capture ELISA
T4 construct: Bought recombinant protein (R&D Systems 293-AN-025/CF) or supernatant of transfected 293F cells; also called Ang-1; recombinant Ang-1
T4 sequence: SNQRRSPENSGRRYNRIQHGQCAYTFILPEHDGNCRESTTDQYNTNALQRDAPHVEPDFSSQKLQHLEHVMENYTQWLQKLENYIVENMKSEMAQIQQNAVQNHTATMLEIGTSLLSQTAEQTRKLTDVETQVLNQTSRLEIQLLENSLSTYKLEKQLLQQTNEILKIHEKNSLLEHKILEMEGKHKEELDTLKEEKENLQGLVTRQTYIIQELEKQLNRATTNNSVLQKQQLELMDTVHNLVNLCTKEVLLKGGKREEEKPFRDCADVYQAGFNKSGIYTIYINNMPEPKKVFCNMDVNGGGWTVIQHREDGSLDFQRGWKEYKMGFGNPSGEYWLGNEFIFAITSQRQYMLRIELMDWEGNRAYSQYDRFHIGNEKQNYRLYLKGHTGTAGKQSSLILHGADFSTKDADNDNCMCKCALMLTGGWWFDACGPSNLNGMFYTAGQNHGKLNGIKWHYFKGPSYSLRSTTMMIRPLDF
Description: The binding of the top 27 human monoclonal antibodies was detected with a HRP-conjugated goat anti-human antibody, followed by colorimetric horseradish peroxidase substrate (Enhanced K-Blue TMB substrate Neogen Corporation). The absorbance of each well of the ELISA plates was measured at 450 nm on a microplate autoreader.

% of binding to human Ang-2 (human Ang-2443) [%] | koff (human Angiopoietin-2 [1]) [s⁻¹] | Kd (human Angiopoietin-2 [2]) [pM] | kon (human Angiopoietin-2 [2]) [M⁻¹ s⁻¹] | binding result (mouse Angiopoietin-2) | binding result (human Angiopoietin-1) | Binder
100 | ≤ 1e-05 | ≤ 65 | 150000 | no binding | no binding | B1
100 | ≤ 1e-05 | ≤ 45 | 220000 | no binding | no binding | B2
100 | ≤ 1e-05 | ≤ 29 | 340000 | no binding | no binding | B3
100 | ≤ 1e-05 | ≤ 31 | 320000 | no binding | no binding | B4
100 | ≤ 1e-05 | ≤ 43 | 230000 | no binding | no binding | B5
100 | ≤ 1e-05 | ≤ 129 | 78000 | no binding | no binding | B6
